Test results taken from US20100311605A1, “SENSING PLATFORM” (NATIONAL CHIAO TUNG UNIVERSITY, priority 2009, published 2010).

What was measured:
MMP-2 [1] = target: T1, MMP-2 (Homo sapiens, UniProt P08253); settings: read-out: enzyme inhibition constant (Ki); cited from earlier work
T1 construct: purchased Sigma-Aldrich, USA
T1 sequence (P08253 110-660): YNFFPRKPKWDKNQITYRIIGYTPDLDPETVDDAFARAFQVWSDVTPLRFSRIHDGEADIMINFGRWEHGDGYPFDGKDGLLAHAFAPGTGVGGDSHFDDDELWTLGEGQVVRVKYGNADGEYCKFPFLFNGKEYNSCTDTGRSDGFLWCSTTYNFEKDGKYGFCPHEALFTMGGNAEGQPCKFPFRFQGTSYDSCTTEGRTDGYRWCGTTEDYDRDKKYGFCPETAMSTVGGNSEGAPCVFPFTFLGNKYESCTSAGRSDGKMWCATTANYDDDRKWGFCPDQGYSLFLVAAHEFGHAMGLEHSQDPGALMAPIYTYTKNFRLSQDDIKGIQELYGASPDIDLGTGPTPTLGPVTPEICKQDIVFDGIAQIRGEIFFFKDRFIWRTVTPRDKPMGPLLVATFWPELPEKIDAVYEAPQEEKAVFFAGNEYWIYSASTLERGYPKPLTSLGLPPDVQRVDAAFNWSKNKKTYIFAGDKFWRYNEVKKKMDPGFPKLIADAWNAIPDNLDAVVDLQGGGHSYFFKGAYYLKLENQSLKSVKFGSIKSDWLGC

MMP-2 [2] = target: T1, MMP-2; assay: Test of MMP-2 suppressor activity and specificity with AuNPs/MCH-gelatin sensing platform; format: biochemical; settings: 37° C., 30 minutes; for suppression of MMP-2 activity (ratios A625/A525 versus control group): suppressor solution 10 mM, 0.5 μL MMP-2 (100 ng/μL), FIG. 6
Experimental: Buffer solutions containing different concentrations of ONO-4817 were added respectively into the solution of AuNPs/MCH-gelatin in a cuvette, and the concentrations of the solutions of AuNPs/MCH-gelatin were adjusted to give an OD525=1.
(§1) Then, a solution of a highly concentrated proteinase suppressor ONO-4817 or A1AT (10 mM) was added to give a mixture. The mixture was placed in a water bath at 37° C. for 30 minutes to allow the reaction. A change in wavelength was measured by a spectrophotometer, and the ratios (A625/A525) of the values measured at wavelengths of 625 nm and 525 nm were calculated.

trypsin = assay: Specificity test of proteinase suppressors with AuNPs/MCH-gelatin sensing platform, trypsin; format: biochemical; settings: suppressor solution 10 mM; 0.5 μL trypsin (100 ng/μL); 37° C., 30 minutes; FIG. 6
Experimental: as §1

AuNPs/MCH-gelatin = assay: Activity test of proteinase (trypsin) on AuNPs/MCH-gelatin; format: biochemical; settings: 37° C., 10 minutes
From the text: Different concentrations of trypsin were used for detection.
Ratios (A625/A525) of the measured values at wavelengths of 625 nm and 525 nm are used as a basis for detection, so as to correct the error of waveform overlapping caused by changes to the sizes of the AuNPs. The ratios (A625/A525) of the groups are in the following: 0.2127 for A, 0.2131 for B, 0.2134 for C, 0.2554 for D, 0.4236 for E, 0.5674 for F, 0.6114 for G and 0.6484 for H. The ratios and the trypsin concentrations are shown in FIG. 3I, wherein when the trypsin concentrations are from 1.25×10^−1 U to 1.25×10^2 U, the wavelength changes and the trypsin concentrations are positively associated.

Row | Molecule | Ki (MMP-2 [1]) [nM] | suppression of MMP-2 activity (waveform change, A625/A525) (MMP-2 [2]; different concentrations of ONO-4817 (0.0125 to 512 nM), 0.5 μL MMP-2 (100 ng/μL) in 200 μL AuNPs/MCH-gelatin, FIG. 5) | suppression of MMP-2 activity (ratios A625/A525 versus control group) (MMP-2 [2]) | suppression of trypsin activity (ratios A625/A525 versus control group) (trypsin) | ratio A625/A525 (AuNPs/MCH-gelatin; group B, 1.25×10^−3 U of trypsin) | ratio A625/A525 (AuNPs/MCH-gelatin; group C, 1.25×10^−2 U of trypsin) | ratio A625/A525 (AuNPs/MCH-gelatin; group D, 1.25×10^−1 U of trypsin) | ratio A625/A525 (AuNPs/MCH-gelatin; group E, 1.25×10^0 U of trypsin) | ratio A625/A525 (AuNPs/MCH-gelatin; group F, 1.25×10^1 U of trypsin) | ratio A625/A525 (AuNPs/MCH-gelatin; group G, 1.25×10^2 U of trypsin) | ratio A625/A525 (AuNPs/MCH-gelatin; group H, 1.25×10^3 U of trypsin)
1 | CCOCOC[C@H](C[C@H](C)C(=O)NO)NC(=O)c1ccc(Oc2ccccc2)cc1 [ONO-4817] | 0.72 | can suppress the activity of MMP-2 | can suppress the activity of MMP-2 | significantly increase |  |  |  |  |  |  | 
2 | A1AT: trypsin suppressor; cannot suppress the activity of MMPs |  |  | not suppressed | can effectively suppress the activity of trypsin |  |  |  |  |  |  | 
3 | trypsin: proteinase detected by the sensing platform (protein, UniProt P00760 24-246, looked up) Serine protease 1: IVGGYTCGANTVPYQVSLNSGYHFCGGSLINSQWVVSAAHCYKSGIQVRLGEDNINVVEGNEQFISASKSIVHPSYNSNTLNNDIMLIKLKSAASLNSRVASISLPTSCASAGTQCLISGWGNTKSSGTSYPDVLKCLKAPILSDSSCKSAYPGQITSNMFCAGYLEGGKDSCQGDSGGPVVCSGKLQGIVSWGSGCAQKNKPGVYTKVCNYVSWIKQTIASN |  |  |  |  | 0.2131 | 0.2134 | 0.2554 | 0.4236 | 0.5674 | 0.6114 | 0.6484
